Results: the supplement of paper PMC9112550, “Optimization of the antimicrobial peptide Bac7 by deep mutational scanning” (BMC Biology, 2022)

Tested on: Escherichia coli TOP10
Test: shrunken log2 fold change of peptide-encoding DNA abundance (4.5 h post-induction vs induction); higher = less antimicrobial activity (less host growth inhibition)
Conditions: time post-induction: 4.5 h; library: site-saturation at positions 5, 18, 19, 20
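Note: peptides expressed intracellularly from a pBAD plasmid library in pooled LB shake-flask culture, induced with 0.3% L-arabinose, DNA abundance read by NGS, three biological replicates, DESeq2 with apeglm shrinkage.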

| Sequence | shrunken log2 fold change |
| --- | --- |
| RRIRVRPPRLPRPRPRPHSAPRP | -0.119 |
| RRIRERPPRLPRPRPRPLKYPRP | -0.38 |
| RRIRSRPPRLPRPRPRPMWPPRP | 0.447 |
| RRIRARPPRLPRPRPRPCQWPRP | -0.0491 |
| RRIRIRPPRLPRPRPRPERPPRP | 0.285 |
| RRIRFRPPRLPRPRPRPEKVPRP | -0.0394 |
| RRIRIRPPRLPRPRPRPIWAPRP | -0.234 |
| RRIRQRPPRLPRPRPRPQALPRP | 0.0286 |
| RRIRDRPPRLPRPRPRPNNHPRP | -0.543 |
| RRIRTRPPRLPRPRPRPTIPPRP | -0.198 |
| RRIRGRPPRLPRPRPRPPMMPRP | 0.626 |
| RRIRWRPPRLPRPRPRPTVCPRP | 0.00145 |
| RRIRMRPPRLPRPRPRPFKKPRP | 0.0258 |
| RRIRLRPPRLPRPRPRPSEDPRP | -0.256 |
| RRIRHRPPRLPRPRPRPGGWPRP | 1.47 |
| RRIRGRPPRLPRPRPRPVDMPRP | 0.255 |
| RRIRERPPRLPRPRPRPFCVPRP | -0.026 |
| RRIRWRPPRLPRPRPRPLDKPRP | 0.352 |
| RRIRGRPPRLPRPRPRPLDTPRP | 0.963 |
| RRIRERPPRLPRPRPRPNTIPRP | -0.45 |
| RRIRDRPPRLPRPRPRPGNPPRP | -5.31e-05 |
| RRIRQRPPRLPRPRPRPVHIPRP | -0.1 |
| RRIRVRPPRLPRPRPRPVCGPRP | 0.211 |
| RRIRMRPPRLPRPRPRPSVVPRP | 0.124 |
| RRIRFRPPRLPRPRPRPARFPRP | 0.1 |

| Sequence | shrunken log2 fold change |
| --- | --- |
| RRIRNRPPRLPRPRPRPAILPRP | -0.101 |
| RRIRERPPRLPRPRPRPWKFPRP | -0.301 |
| RRIRPRPPRLPRPRPRPWCNPRP | -0.239 |
| RRIRYRPPRLPRPRPRPHYSPRP | -0.124 |
| RRIRHRPPRLPRPRPRPMRWPRP | 0.396 |
| RRIRIRPPRLPRPRPRPNPKPRP | 0.0309 |
| RRIRDRPPRLPRPRPRPGEIPRP | 0.501 |
| RRIRRRPPRLPRPRPRPLYWPRP | 0.0153 |
| RRIRQRPPRLPRPRPRPPNRPRP | -0.131 |
| RRIRERPPRLPRPRPRPPAGPRP | 0.589 |
| RRIRFRPPRLPRPRPRPTSAPRP | 0.344 |
| RRIRRRPPRLPRPRPRPRRHPRP | 0.218 |
| RRIRGRPPRLPRPRPRPRTIPRP | 0.375 |
| RRIRCRPPRLPRPRPRPVDEPRP | 2.09 |
| RRIRFRPPRLPRPRPRPPNLPRP | -0.0642 |
| RRIRMRPPRLPRPRPRPGPEPRP | 0.797 |
| RRIRGRPPRLPRPRPRPCKIPRP | -0.189 |
| RRIRTRPPRLPRPRPRPRLAPRP | 0.453 |
| RRIRCRPPRLPRPRPRPERYPRP | -0.153 |
| RRIRIRPPRLPRPRPRPCRQPRP | 0.112 |
| RRIRLRPPRLPRPRPRPVGPPRP | 0.163 |
| RRIRDRPPRLPRPRPRPWVLPRP | -0.00957 |
| RRIRIRPPRLPRPRPRPVGDPRP | -0.0246 |
| RRIRVRPPRLPRPRPRPKYHPRP | -0.373 |
| RRIRFRPPRLPRPRPRPATRPRP | 0.193 |

| Sequence | shrunken log2 fold change |
| --- | --- |
| RRIRYRPPRLPRPRPRPGGIPRP | -0.0836 |
| RRIRLRPPRLPRPRPRPHADPRP | -0.299 |
| RRIRHRPPRLPRPRPRPNGLPRP | -0.57 |
| RRIRTRPPRLPRPRPRPEHQPRP | 0.127 |
| RRIRWRPPRLPRPRPRPDICPRP | -0.0379 |
| RRIRARPPRLPRPRPRPIQVPRP | -0.215 |
| RRIRSRPPRLPRPRPRPEDIPRP | -0.0081 |
| RRIRDRPPRLPRPRPRPRFNPRP | 0.858 |
| RRIRHRPPRLPRPRPRPRERPRP | 0.392 |
| RRIRRRPPRLPRPRPRPKWIPRP | -0.096 |
| RRIRLRPPRLPRPRPRPDLGPRP | -0.0612 |
| RRIRDRPPRLPRPRPRPSMNPRP | -0.152 |
| RRIRLRPPRLPRPRPRPCGAPRP | 0.356 |
| RRIRQRPPRLPRPRPRPAHYPRP | -0.332 |
| RRIRVRPPRLPRPRPRPQSGPRP | -0.0607 |
| RRIRDRPPRLPRPRPRPFQCPRP | 0.00675 |
| RRIRWRPPRLPRPRPRPWRQPRP | 0.25 |
| RRIRDRPPRLPRPRPRPARCPRP | 0.446 |
| RRIRDRPPRLPRPRPRPHWGPRP | 0.00196 |
| RRIRCRPPRLPRPRPRPPWKPRP | 0.195 |
| RRIRIRPPRLPRPRPRPQWWPRP | 0.0271 |
| RRIRPRPPRLPRPRPRPYQMPRP | -0.722 |
| RRIRWRPPRLPRPRPRPNYPPRP | -0.157 |
| RRIRARPPRLPRPRPRPHQSPRP | 0.265 |
| RRIRKRPPRLPRPRPRPDQAPRP | -0.029 |

| Sequence | shrunken log2 fold change |
| --- | --- |
| RRIRWRPPRLPRPRPRPCSFPRP | 0.0624 |
| RRIRRRPPRLPRPRPRPEARPRP | 0.172 |
| RRIRKRPPRLPRPRPRPSQAPRP | -0.0142 |
| RRIRRRPPRLPRPRPRPHKVPRP | 0.0772 |
| RRIRRRPPRLPRPRPRPNARPRP | 0.35 |
| RRIRSRPPRLPRPRPRPFVNPRP | -0.99 |
| RRIRWRPPRLPRPRPRPFVYPRP | -0.428 |
| RRIRARPPRLPRPRPRPHMSPRP | -0.181 |
| RRIRVRPPRLPRPRPRPVFEPRP | -0.0665 |
| RRIRDRPPRLPRPRPRPERWPRP | 1.3 |
| RRIRDRPPRLPRPRPRPREDPRP | 0.293 |
| RRIRYRPPRLPRPRPRPMKAPRP | -0.000687 |
| RRIRWRPPRLPRPRPRPKIYPRP | -0.0902 |
| RRIRPRPPRLPRPRPRPFEIPRP | -0.0325 |
| RRIRHRPPRLPRPRPRPNRQPRP | -0.0122 |
| RRIRFRPPRLPRPRPRPVWYPRP | -0.308 |
| RRIRTRPPRLPRPRPRPMPAPRP | 0.102 |
| RRIRPRPPRLPRPRPRPFKFPRP | -0.469 |
| RRIRYRPPRLPRPRPRPHEAPRP | -0.215 |
| RRIRARPPRLPRPRPRPQMNPRP | -0.113 |
| RRIRDRPPRLPRPRPRPMAEPRP | 0.902 |
| RRIRNRPPRLPRPRPRPQDWPRP | -0.133 |
| RRIRDRPPRLPRPRPRPEWIPRP | 0.0504 |
| RRIRRRPPRLPRPRPRPQYFPRP | -0.0475 |
| RRIRTRPPRLPRPRPRPWKSPRP | -0.0257 |

| Sequence | shrunken log2 fold change |
| --- | --- |
| RRIRSRPPRLPRPRPRPKCDPRP | 0.00444 |
| RRIRVRPPRLPRPRPRPTIEPRP | 0.061 |
| RRIRPRPPRLPRPRPRPPECPRP | 0.338 |
| RRIRCRPPRLPRPRPRPDHVPRP | 0.021 |
| RRIRERPPRLPRPRPRPVMGPRP | -0.123 |
| RRIRARPPRLPRPRPRPETVPRP | 0.312 |
| RRIRFRPPRLPRPRPRPATYPRP | -0.191 |
| RRIRPRPPRLPRPRPRPNKNPRP | -0.24 |
| RRIRSRPPRLPRPRPRPDDPPRP | 0.0348 |
| RRIRLRPPRLPRPRPRPRETPRP | -0.0213 |
| RRIRIRPPRLPRPRPRPKAKPRP | 0.329 |
| RRIRMRPPRLPRPRPRPMAEPRP | 2.79 |
| RRIRIRPPRLPRPRPRPMRMPRP | 0.0697 |
| RRIRERPPRLPRPRPRPWMSPRP | -0.0212 |
| RRIRYRPPRLPRPRPRPEQDPRP | -0.0203 |
| RRIRARPPRLPRPRPRPNTDPRP | -0.127 |
| RRIRCRPPRLPRPRPRPGNIPRP | -0.198 |
| RRIRRRPPRLPRPRPRPLCVPRP | 0.537 |
| RRIRFRPPRLPRPRPRPMDEPRP | 0.0137 |
| RRIRWRPPRLPRPRPRPSWFPRP | -0.0343 |
| RRIRPRPPRLPRPRPRPGPIPRP | 0.148 |
| RRIRTRPPRLPRPRPRPKAYPRP | 0.0161 |
| RRIRLRPPRLPRPRPRPVMQPRP | 0.00383 |
| RRIRYRPPRLPRPRPRPKHLPRP | -0.155 |
| RRIRYRPPRLPRPRPRPECWPRP | 0.192 |

| Sequence | shrunken log2 fold change |
| --- | --- |
| RRIRARPPRLPRPRPRPQGWPRP | 0.472 |
| RRIRTRPPRLPRPRPRPKQDPRP | 0.075 |
| RRIRMRPPRLPRPRPRPYWYPRP | -0.0684 |
| RRIRPRPPRLPRPRPRPQQPPRP | 0.132 |
| RRIRHRPPRLPRPRPRPPQVPRP | -0.0255 |
| RRIRTRPPRLPRPRPRPPSQPRP | 0.269 |
| RRIRMRPPRLPRPRPRPMRIPRP | 0.355 |
| RRIRIRPPRLPRPRPRPQVRPRP | -0.223 |
| RRIRLRPPRLPRPRPRPMFCPRP | -0.752 |
| RRIRCRPPRLPRPRPRPVYVPRP | -0.483 |
| RRIRRRPPRLPRPRPRPASVPRP | 0.267 |
| RRIRPRPPRLPRPRPRPHKDPRP | -0.339 |
| RRIRARPPRLPRPRPRPQEEPRP | 0.0293 |
| RRIRTRPPRLPRPRPRPEMAPRP | 0.484 |
| RRIRVRPPRLPRPRPRPHCYPRP | -0.234 |
| RRIRTRPPRLPRPRPRPDYMPRP | -0.687 |
| RRIRYRPPRLPRPRPRPLEGPRP | 0.0645 |
| RRIRQRPPRLPRPRPRPTTRPRP | 0.215 |
| RRIRIRPPRLPRPRPRPQRQPRP | 0.098 |
| RRIRERPPRLPRPRPRPPHKPRP | 0.0221 |
| RRIRQRPPRLPRPRPRPQTEPRP | -0.128 |
| RRIRCRPPRLPRPRPRPKGVPRP | 0.595 |
| RRIRARPPRLPRPRPRPELVPRP | 1.3 |
| RRIRKRPPRLPRPRPRPHIEPRP | -0.891 |
| RRIRHRPPRLPRPRPRPFYAPRP | -0.724 |
